Assay [1] deals with T1, Myosin binding subunit (MBS) of myosin phosphatase, endogenous in human vascular smooth muscle cells (human, UniProt O14974 1-1030, limits assumed).
T1 construct: In lysate it stands in the myosin phosphatase complex with PP1 and the 20 kD subunit; also called MYPT1
T1 sequence (looked up): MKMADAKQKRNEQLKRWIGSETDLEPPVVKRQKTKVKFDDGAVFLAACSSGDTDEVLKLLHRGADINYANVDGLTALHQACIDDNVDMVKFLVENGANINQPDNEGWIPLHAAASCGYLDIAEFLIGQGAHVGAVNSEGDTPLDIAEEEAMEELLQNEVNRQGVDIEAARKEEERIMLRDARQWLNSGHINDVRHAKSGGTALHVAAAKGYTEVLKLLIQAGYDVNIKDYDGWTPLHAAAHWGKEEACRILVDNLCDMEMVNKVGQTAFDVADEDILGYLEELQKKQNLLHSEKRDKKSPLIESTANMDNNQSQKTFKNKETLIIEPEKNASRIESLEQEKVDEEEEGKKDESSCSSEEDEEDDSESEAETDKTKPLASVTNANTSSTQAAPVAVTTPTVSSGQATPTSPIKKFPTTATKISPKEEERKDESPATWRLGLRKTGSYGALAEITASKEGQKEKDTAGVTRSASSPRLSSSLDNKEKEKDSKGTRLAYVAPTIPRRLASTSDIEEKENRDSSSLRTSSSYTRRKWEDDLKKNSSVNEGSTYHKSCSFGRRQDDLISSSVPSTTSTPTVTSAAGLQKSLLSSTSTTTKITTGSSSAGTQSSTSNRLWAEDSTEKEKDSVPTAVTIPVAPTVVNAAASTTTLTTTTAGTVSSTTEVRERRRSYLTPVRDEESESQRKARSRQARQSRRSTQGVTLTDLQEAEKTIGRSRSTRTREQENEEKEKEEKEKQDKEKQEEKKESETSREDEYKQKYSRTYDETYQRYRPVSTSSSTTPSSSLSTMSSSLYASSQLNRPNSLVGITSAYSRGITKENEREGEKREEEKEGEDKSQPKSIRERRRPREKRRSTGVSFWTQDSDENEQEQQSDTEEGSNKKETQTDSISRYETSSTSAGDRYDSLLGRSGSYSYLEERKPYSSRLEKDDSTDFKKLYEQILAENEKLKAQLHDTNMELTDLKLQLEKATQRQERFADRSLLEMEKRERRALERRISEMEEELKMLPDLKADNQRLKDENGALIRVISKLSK
As to the kind of experiment: GST pull-down from vascular smooth muscle cell lysate, anti-MBS immunoblot. From the text: Also shown is the same M-RIP domains expressed in COS1 cells as Flag-tagged proteins and immunoprecipitated with M2 antibody. The MBS immunoblot of the immunopellets is shown in the middle panel and the total cellular MBS content from each lysate used for immunoprecipitation is shown in the lower panel. Molecular weight size markers in kD are shown on the right.
Identical results were obtained in heterologous expression studies with epitope-tagged constructs for various M-RIP domains expressed in COS1 cells (FIG. 4B).
(§1) For fusion protein interactions with proteins from cell lysates, confluent cells were rinsed twice with ice cold PBS, lysed in buffer A, incubated for 1 hour at room temperature, then centrifuged at 14,000 rpm for 20 minutes at 40C. The supernatant was mixed with GST-fusion proteins prebound to glutathione agarose beads. After overnight incubation at 40C, the beads were washed with buffer C, eluted with SDS sample buffer and bound proteins were analyzed by immunoblotting. For fusion protein interactions with purified proteins, fusion proteins immobilized on beads were incubated in buffer A for one hour with purified soluble protein previously eluted from beads. After incubation, the beads were washed three times with buffer C, bound proteins were eluted in SDS sample buffer and analyzed by immunoblotting with anti-GST antibodies.
Background: A western blot detects proteins with antibodies after separation by electrophoresis.

For assay [2], the target named is T2, MBS-Cterm-pGBT9 (human MBS base pairs 2043-3090 fused to the Gal4 DNA binding domain) (human, UniProt P04386 1-147; O14974 682-1030).
T2 construct: Bait of the yeast 2-hybrid screen
As to the kind of experiment: yeast two-hybrid. An excerpt: Human MBS-Cterm, base pairs 2043-3090 (kind gift of Dr. Masaaki Ito) was cloned into the EcoR1 site of yeast 2-hybrid vectors pGBT9 and pGAD424, expressing MBS fusion proteins with Gal4 DNA binding domain and DNA activating domain, respectively. Expression of MBS-Cterm in yeast was confirmed by dimerization when MBS-Cterm-pGBT9 and MBS-Cterm-pGAD424 were coexpressed in yeast (data not shown). Yeast strain Y190 was sequentially transformed with MBSCterm- pGBT9 and a human aorta cDNA library (Clontech) using the lithium acetate method. Interactions were identified by growth on selective media, and confirmed by colony lift filter β-galactosidase assay. The cDNA library plasmid was extracted from confirmed positive yeast colonies, and sequenced at the Tufts Core Sequencing Facility.

Assay [3] has as its target T3, GST-MBSLZ (amino acids 847-1030 of MBS, includes the leucine zipper domain) (human, UniProt O14974 847-1030).
T3 construct: range 847-1030; also called wild type C terminal MBS; not shown: glutathione S-transferase (GST) tag
T3 sequence (looked up): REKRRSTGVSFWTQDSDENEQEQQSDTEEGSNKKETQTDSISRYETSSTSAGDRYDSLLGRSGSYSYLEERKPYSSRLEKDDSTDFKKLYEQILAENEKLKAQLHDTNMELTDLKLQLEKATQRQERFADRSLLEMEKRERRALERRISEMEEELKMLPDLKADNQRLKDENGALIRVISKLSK
As to the kind of experiment: purified protein interaction, His fusions on Ni-NTA beads, anti-GST immunoblot. The protocol:
FIG. 4F show a series of immunoblots representing a purified protein interaction assay in which similar quantities of 6×his CC1, CC2, and CC3 bound to Ni-NTA beads were incubated with purified soluble GST-MBSLZ or GST-MBSLZ mutant. Bound GST-MBSLZ and GST-MBSLZ mutant were detected using anti-GST antibodies.
as §1

For assay [4], the target named is T4, GFP-MBSLZM (full-length GFP-MBS with the C-terminal domain of GST-MBSLZmutant) (human, UniProt O14974 1-1030).
T4 construct: also called GFP-MBSLZ mutant; not shown: GFP of the pEGFP vector
T4 sequence (looked up): T1 sequence (looked up) with L1007A, L1014A, L1021A, L1028A
As to the kind of experiment: GST pull-down from lysate of transfected COS1 cells, anti-MBS immunoblot.

The values that follow come from patent US20040180811A1 (NEW ENGLAND MEDICAL CENTER HOSPITAL, published 2004).

Positions count from the first letter of the chain named.

B1: GST-M-RIP545-823 (M-RIP RhoA-binding domain) (other)
chain: AEFRPIQQALAQERVGGVGPADTHEPLRPEAESGELERERARRREERRKRFGMLDATDGPGTEDAALRMEVDRSPGLPMSDLKTHNVHVEIEQRWHQVETTPLREEKQVPIAPVHLSSEDGGDRLSTHELTSLLEKELEQSQKEASDLLEQNRLLQDQLRVALGREQSAREGYVLQATCERGFAAMEETHQKKIEDLQRQHQRELEKLREEKDRLLAEETAATISAIEAMKNAHREEMERELEKSQRSQISSVNSDVEALRRQYLEELQSVQRELEVLS
notes: not shown: glutathione S-transferase (GST) tag of the pGEX vector
In the case of B1, the binding result in assay [1] is on record as “no binding”.

B2: MBS-Cterm-pGAD424 (human MBS base pairs 2043-3090 fused to the Gal4 DNA activating domain) (other, UniProt O14974 682-1030, looked up, not shown: large carriers)
chain: RKARSRQARQSRRSTQGVTLTDLQEAEKTIGRSRSTRTREQENEEKEKEEKEKQDKEKQEEKKESETSREDEYKQKYSRTYDETYQRYRPVSTSSSTTPSSSLSTMSSSLYASSQLNRPNSLVGITSAYSRGITKENEREGEKREEEKEGEDKSQPKSIRERRRPREKRRSTGVSFWTQDSDENEQEQQSDTEEGSNKKETQTDSISRYETSSTSAGDRYDSLLGRSGSYSYLEERKPYSSRLEKDDSTDFKKLYEQILAENEKLKAQLHDTNMELTDLKLQLEKATQRQERFADRSLLEMEKRERRALERRISEMEEELKMLPDLKADNQRLKDENGALIRVISKLSK
notes: domain: MBS-Cterm (base pairs 2043-3090)
As for B2, in assay [2], the binding result is “binds”.

B3: 6×his CC2 (polyhistidine fusion of M-RIP coiled-coil domain 2) (other)
chain: AAMEETHQKKIEDLQRQHQRELEKLREEKDRLLAEETAATISAIEAMKNAHREEMERELEKSQRSQISSVNSDVEALRRQYLEELQSVQRELEVLSEQYSQKCLENAHLAQALEAERQALRQCQRENQELNAHNQELNNRLAAEITRLRTL
notes: not shown: polyhistidine (6xhis) tag of the pQE vector
As for B3, the binding result in assay [3] is recorded as “binds”.

B4: GST-M-RIP545-878 (RhoA-binding domain plus the remaining carboxy-terminus of CC2) (other)
chain: AEFRPIQQALAQERVGGVGPADTHEPLRPEAESGELERERARRREERRKRFGMLDATDGPGTEDAALRMEVDRSPGLPMSDLKTHNVHVEIEQRWHQVETTPLREEKQVPIAPVHLSSEDGGDRLSTHELTSLLEKELEQSQKEASDLLEQNRLLQDQLRVALGREQSAREGYVLQATCERGFAAMEETHQKKIEDLQRQHQRELEKLREEKDRLLAEETAATISAIEAMKNAHREEMERELEKSQRSQISSVNSDVEALRRQYLEELQSVQRELEVLSEQYSQKCLENAHLAQALEAERQALRQCQRENQELNAHNQELNNRLAAEITRLRTL
notes: as for B1
Consider B4, for which the binding result in assay [4] is reported as “no binding”.
